The numbers were not newly measured in publication PMC3237005, which cites them from elsewhere.

The target in data set [1] is Edema factor (EF) EFN (Bacillus anthracis) (UniProt P40136).
Data set [2] has as its target Lethal factor (LF) LFN (Bacillus anthracis) (UniProt P15917).

For the substance “Protective antigen (PA63 heptamer) PA63 (from UniProt P13423)”, the Kd in data set [1] and in data set [2] was 1 nM throughout.
